Here are results for ten molecules from article PMC13022674, “Thymine DNA glycosylase binds to R-loops and excises 5-formyl and 5-carboxyl cytosine from DNA/RNA hybrids”.

The target in series [1] is T1, TDG (thymine DNA glycosylase) (human, UniProt Q13569 1-410). In words: EMSA; Hill 1.8; EMSA: 5 nM substrate, 100 mM NaCl, 2.5 mM MgCl2, 10 mM Tris-HCl pH 7.5, 5% glycerol, 30 min 30 C, 0.6% agarose 1x TBE 4 C; NMR: 0.1 M NaCl, 0.03 mM TCEP, 15 mM. Particulars: protein: recombinant; tags: His tag (pET28a, TALON purified); label: 5'-FAM strand 1; blunt; G-UF pair intended. A general note: In EMSA bound probe runs differently from free probe, usually more slowly.

Series [2] concerns the target T1, TDG (thymine DNA glycosylase). In words: EMSA; Hill 2.3; EMSA: 5 nM substrate, 100 mM NaCl, 2.5 mM MgCl2, 10 mM Tris-HCl pH 7.5, 5% glycerol, 30 min 30 C, 0.6% agarose 1x TBE 4 C; NMR: 0.1 M NaCl, 0.03 mM TCEP, 15 mM. Particulars: protein: recombinant; tags: His tag (pET28a, TALON purified); label: 5'-FAM strand 1; blunt.
Series [3] has the same target. The series can be described thus: EMSA; Hill 2.7; EMSA: 5 nM substrate, 100 mM NaCl, 2.5 mM MgCl2, 10 mM Tris-HCl pH 7.5, 5% glycerol, 30 min 30 C, 0.6% agarose 1x TBE 4 C; NMR: 0.1 M NaCl, 0.03 mM TCEP, 15 mM. The conditions noted are these: protein: recombinant; tags: His tag (pET28a, TALON purified); label: 5'-FAM strand 1; blunt.
Series [4] has the same target. The series can be described thus: EMSA; Hill 3.0; EMSA: 5 nM substrate, 100 mM NaCl, 2.5 mM MgCl2, 10 mM Tris-HCl pH 7.5, 5% glycerol, 30 min 30 C, 0.6% agarose 1x TBE 4 C; NMR: 0.1 M NaCl, 0.03 mM TCEP, 15 mM. Particulars: protein: recombinant; tags: His tag (pET28a, TALON purified); label: 5'-FAM strand 1; blunt.
Series [5] has the same target. In words: EMSA; Hill 4.9; EMSA: 5 nM substrate, 100 mM NaCl, 2.5 mM MgCl2, 10 mM Tris-HCl pH 7.5, 5% glycerol, 30 min 30 C, 0.6% agarose 1x TBE 4 C; NMR: 0.1 M NaCl, 0.03 mM TCEP, 15 mM. The conditions noted are these: protein: recombinant; tags: His tag (pET28a, TALON purified); label: 5'-FAM strand 1; blunt.
Series [6] shares this target. In words: EMSA; Hill 4.5; EMSA: 5 nM substrate, 100 mM NaCl, 2.5 mM MgCl2, 10 mM Tris-HCl pH 7.5, 5% glycerol, 30 min 30 C, 0.6% agarose 1x TBE 4 C; NMR: 0.1 M NaCl, 0.03 mM TCEP, 15 mM. The conditions noted are these: protein: recombinant; tags: His tag (pET28a, TALON purified); label: 5'-FAM strand 1; blunt.
Series [7] shares this target. The series can be described thus: EMSA; Hill 2.0; EMSA: 5 nM substrate, 100 mM NaCl, 2.5 mM MgCl2, 10 mM Tris-HCl pH 7.5, 5% glycerol, 30 min 30 C, 0.6% agarose 1x TBE 4 C; NMR: 0.1 M NaCl, 0.03 mM TCEP, 15 mM. The conditions noted are these: protein: recombinant; tags: His tag (pET28a, TALON purified); label: 5'-FAM strand 1; blunt.
Series [8] has the same target. The series can be described thus: EMSA; Hill 2.9; EMSA: 5 nM substrate, 100 mM NaCl, 2.5 mM MgCl2, 10 mM Tris-HCl pH 7.5, 5% glycerol, 30 min 30 C, 0.6% agarose 1x TBE 4 C; NMR: 0.1 M NaCl, 0.03 mM TCEP, 15 mM. The conditions noted are these: protein: recombinant; tags: His tag (pET28a, TALON purified); label: 5'-FAM strand 1; 5' overhang 1 nt (strand 1).
Series [9] shares this target. The series can be described thus: EMSA; EMSA: 5 nM substrate, 100 mM NaCl, 2.5 mM MgCl2, 10 mM Tris-HCl pH 7.5, 5% glycerol, 30 min 30 C, 0.6% agarose 1x TBE 4 C; NMR: 0.1 M NaCl, 0.03 mM TCEP, 15 mM. Particulars: protein: recombinant; tags: His tag (pET28a, TALON purified); blunt.
Series [10] shares this target. The series can be described thus: EMSA; Hill 6.1; EMSA: 5 nM substrate, 100 mM NaCl, 2.5 mM MgCl2, 10 mM Tris-HCl pH 7.5, 5% glycerol, 30 min 30 C, 0.6% agarose 1x TBE 4 C; NMR: 0.1 M NaCl, 0.03 mM TCEP, 15 mM. Particulars: protein: recombinant; tags: His tag (pET28a, TALON purified); label: 5'-FAM strand 1; 5' overhang 1 nt (strand 1).

T1 sequence (Q13569 whole entry): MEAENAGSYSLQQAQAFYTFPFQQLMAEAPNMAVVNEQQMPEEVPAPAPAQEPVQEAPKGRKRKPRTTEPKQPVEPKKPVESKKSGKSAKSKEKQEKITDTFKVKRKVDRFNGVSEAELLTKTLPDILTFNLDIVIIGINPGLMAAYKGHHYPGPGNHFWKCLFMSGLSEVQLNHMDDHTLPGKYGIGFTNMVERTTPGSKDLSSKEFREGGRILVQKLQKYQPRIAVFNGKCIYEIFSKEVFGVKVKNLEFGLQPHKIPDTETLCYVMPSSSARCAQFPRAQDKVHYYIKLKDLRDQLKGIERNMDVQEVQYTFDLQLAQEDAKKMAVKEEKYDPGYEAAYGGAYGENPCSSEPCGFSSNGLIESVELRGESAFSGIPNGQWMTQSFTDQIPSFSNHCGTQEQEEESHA

B1: D1-UF (dsDNA)
DNA 1: TGAGGATGTATATATCTGAUGCGCCGGTGGAGC
DNA 2: GCTCCACCGGCGCGTACGATATATACATCCTCA
modifications: 2'-deoxy-2'-fluoroarabinouridine (UF) at strand 1 pos 20
One may read the Kd as the concentration at which binding is half-saturated. For B1, the Kd in series [1] is 32 nM.

B2: D1-C (dsDNA)
DNA 1: TGAGGATGTATATATCTGACGCGCCGGTGGAGC
DNA 2: GCTCCACCGGCGCGTACGATATATACATCCTCA
Regarding B2, the Kd in [2] is 43 nM.

B3: H1-5caC (DNA:RNA)
DNA: TGAGGATGTATATATCTGACGCGCCGGTGGAGC
RNA: GCUCCACCGGCGCGUACGAUAUAUACAUCCUCA
modifications: 5-carboxycytosine at strand 1 pos 20; strand 2 RNA
B3: the Kd in [3] turned out to be 31 nM.

B4: D1-5fC (dsDNA)
DNA 1: TGAGGATGTATATATCTGACGCGCCGGTGGAGC
DNA 2: GCTCCACCGGCGCGTACGATATATACATCCTCA
modifications: 5-formylcytosine at strand 1 pos 20
As to B4, the Kd in series [4] is 56 nM.

B5: H1-5fC (DNA:RNA)
DNA: TGAGGATGTATATATCTGACGCGCCGGTGGAGC
RNA: GCUCCACCGGCGCGUACGAUAUAUACAUCCUCA
modifications: 5-formylcytosine at strand 1 pos 20; strand 2 RNA
For B5, the equilibrium dissociation constant (Kd) in series [5] came out at 60 nM.

B6: H1-C (DNA:RNA)
DNA: TGAGGATGTATATATCTGACGCGCCGGTGGAGC
RNA: GCUCCACCGGCGCGUACGAUAUAUACAUCCUCA
modifications: strand 2 RNA
For the molecule B6, the dissociation constant Kd in [6] stood at 67 nM.

B7: D1-5caC (dsDNA)
DNA 1: TGAGGATGTATATATCTGACGCGCCGGTGGAGC
DNA 2: GCTCCACCGGCGCGTACGATATATACATCCTCA
modifications: 5-carboxycytosine at strand 1 pos 20
With B7, in series [7], the dissociation constant (Kd) turned out to be 25 nM.

B8: D2-C (dsDNA)
DNA 1: TGTGTCACCACTGCTCACGTACAGAGCTG
DNA 2: CAGCTCTGTACGTGAGCAGTGGTGACAC
For B8, in series [8], the Kd is 47 nM.

B9: TCF21-DNA (unmodified) (dsDNA)
DNA 1: TCCTAGTGTCCACCAAATTCCTCAGCGCTCGCTCACCCTCCTCTACGGCCACGACTCTGGGAGTG
DNA 2: CACTCCCAGAGTCGTGGCCGTAGAGGAGGGTGAGCGAGCGCTGAGGAATTTGGTGGACACTAGGA
Take B9: the dissociation constant (Kd) in series [9] turned out to be 49 nM.

B10: H2-C (DNA:RNA)
DNA: TGTGTCACCACTGCTCACGTACAGAGCTG
RNA: CAGCUCUGUACGUGAGCAGUGGUGACAC
modifications: strand 2 RNA
As to B10, in series [10], the Kd was determined as 57 nM.
